Square brackets hold non-standard residues; d marks the D form. Primed or numbered codes have the meaning given here. Ends that are not written are not given here. PEG4″ = 4-unit polyethylene glycol spacer; PEG8″ = 8-unit polyethylene glycol spacer
Tests used:
Experiment in all cases: cell-based or functional assay
type B insulin receptor = type B insulin receptor (UniProt P06213)
type A insulin receptor = type A insulin receptor (UniProt P06213)
[1] = target: type A insulin receptor, P06213
[2] = target: type B insulin receptor, P06213
[3] = target: human IGF-1 receptor (human) (UniProt P08069)

B1: MIU-78 mono-20K-TC: B1-20K B^1(H5,10Y16L17K29)29:A^1(H8N18,21) (ligand)
chain 1: GPEHLCGAHLVDALYLVCGDRGFYFNKK
chain 2: GIVDECCHRSCDLRRLENYCN
% activity in vitro (type B insulin receptor): 3.2% | % activity in vitro (type A insulin receptor): 8.2%

B2: MIU-79 di-10K-SC: B1,A14-10K B^1(H5,10Y16L17R29)30-C^1des9-12-A^1(H8,K14,N18,21) (ligand)
chain: {PEG 10 kDa}-GPEHLCGAHLVDALYLVCGDRGFYFNKRTGYGSSSRRGIVDECCHRSCDLK(PEG 10 kDa)RLENYCN
modifications: ends and bridges not checked
% activity in vitro [1]: 1.7% | % activity in vitro [2]: 0.2%

B3: MIU-57: B1-PEG20K MIU-35 (ligand)
chain: {PEG 20 kDa}-GPEHLCGAHLVDALYLVCGDRGFYGYGSSSRRAPQTGIVDECCHRSCDLRRLENYCN
modifications: ends and bridges not checked
% (potency at the receptor, assay not named) [1]: 4.5% | % Insulin Activity (in vitro, assay not named) [1]: 3.1% | Phosphorylation (EC50), % IR-A [1]: 4.5% | % (potency at the receptor, assay not named) [2]: 1.1% | % Insulin Activity (in vitro, assay not named) [2]: 1.1% | Phosphorylation (EC50), % IR-B [2]: 1.1%

Ac-GPEHLCGAELVDALYLVCGDRGFY[PEG8″]K(PEG 20 kDa)[PEG4″]GIVDECCFRSCDLRRLENYCN (ligand, cysteine pairing not given here) [MIU-56: C8-PEG20K B^1(H5,Y16,L17)25-PEG8-K-PEG4-A^1(N18,N21)]
% Insulin Activity (in vitro, assay not named) [1]: 14.8% | Phosphorylation (EC50), % IR-A [1]: 14.8% | Phosphorylation (EC50), % IR-B [2]: 2%

B4: DP3(TC): B^1(H5,10Y16L17K29)29:A^1(H8,N18,21) (ligand)
chain 1: GPEHLCGAHLVDALYLVCGDRGFYFNKK
chain 2: GIVDECCHRSCDLRRLENYCN
% activity in vitro [1]: 160% | % activity in vitro [2]: 33.1%

B5: MIU-35: B^1(H5,10Y16L17)25-C^1-A^1(H8N18,21) (ligand)
chain: GPEHLCGAHLVDALYLVCGDRGFYGYGSSSRRAPQTGIVDECCHRSCDLRRLENYCN
% (potency at the receptor, assay not named) (type B insulin receptor): 17.4% | % Insulin Activity (in vitro, assay not named) (type B insulin receptor): 17.4% | % (potency at the receptor, assay not named) (type A insulin receptor): 61.4% | % Insulin Activity (in vitro, assay not named) (type A insulin receptor): 61.4% | % (potency at the receptor, assay not named) [3]: 3.2% | % Insulin Activity (in vitro, assay not named) [3]: 3.2%

B6: B^1(H5,10Y16L17A24)25-C^1-A^1(H8N18,N21) (ligand)
chain: GPEHLCGAHLVDALYLVCGDRGAYGYGSSSRRAPQTGIVDECCHRSCDLRRLENYCN
% (potency at the receptor, assay not named) (type B insulin receptor): 0.4% | % (potency at the receptor, assay not named) (type A insulin receptor): 0.1% | % (potency at the receptor, assay not named) [3]: 0.3%

B7: B^1(H5,10Y16L17)25-C^1-A^1(T8N18,21) (ligand)
chain: GPEHLCGAHLVDALYLVCGDRGFYGYGSSSRRAPQTGIVDECCTRSCDLRRLENYCN
% (potency at the receptor, assay not named) [1]: 20.4% | % (potency at the receptor, assay not named) [2]: 8.4%

B8: B^1(A5H10Y16L17)25-C^1-A^1(H8N18N21) (ligand)
chain: GPEALCGAHLVDALYLVCGDRGFYGYGSSSRRAPQTGIVDECCHRSCDLRRLENYCN
% (potency at the receptor, assay not named) (type B insulin receptor): 5.7% | % (potency at the receptor, assay not named) [3]: 2.5%

B9: GE5W-B^1(A5H10Y16L17)25-C^1-A^1(H8N18N21) (ligand)
chain: GEEEEEWGPEALCGAHLVDALYLVCGDRGFYGYGSSSRRAPQTGIVDECCHRSCDLRRLENYCN
% (potency at the receptor, assay not named) (type B insulin receptor): 2.3% | % (potency at the receptor, assay not named) (type A insulin receptor): 8.6% | % (potency at the receptor, assay not named) [3]: 0.3%

B10: GE5W-B^1(H5,10Y16L17)25-C^1-A^1(A1H8N18,21) (ligand)
chain: GEEEEEWGPEHLCGAHLVDALYLVCGDRGFYGYGSSSRRAPQTAIVDECCHRSCDLRRLENYCN
% (potency at the receptor, assay not named) [1]: 2.1% | % (potency at the receptor, assay not named) [2]: 0.7%

GPEHLCGAHLVDALYLVCGDRGFYFNKKGIVDECCHRSCDLRRLENYCN (ligand) [DP3(SC): B^1(H5,10Y16L17K29)29-A^1(H8,N18,21)]
% activity in vitro [1]: 0.03%

GPEHLCGAHLVDALYLVCGDRGFYFNKKGIVDECCHRSCDLRRLENYCN (ligand) [MIU-77 mono-20K-SC: B1-20K B^1(H5,10Y16L17K29)29-A^1(H8N18,21)]
% activity in vitro (type A insulin receptor): 0.1%

B11: MIU-43 DP8Mut3: B^1(H5,10Y16L17R29)30-C^1des9-12-A^1(H8,N18,21) (ligand)
chain: GPEHLCGAHLVDALYLVCGDRGFYFNKRTGYGSSSRRGIVDECCHRSCDLRRLENYCN
% activity in vitro [1]: 97.5% | % activity in vitro [2]: 16.7%

B12: DP8Mut3KA14: B^1(H5,10Y16L17R29)30-C^1des9-12-A^1(H8,K14,N18,21) (ligand)
chain: GPEHLCGAHLVDALYLVCGDRGFYFNKRTGYGSSSRRGIVDECCHRSCDLKRLENYCN
% activity in vitro [1]: 132% | % activity in vitro [2]: 12.6%

B13: di-10K-TC: B1,A14-10K B^1(H5,10Y16L17R29)29:A^1(H8K14N18,21) (ligand)
chain 1: {PEG 10 kDa}-GPEHLCGAHLVDALYLVCGDRGFYFNKR
chain 2: GIVDECCHRSCDLK(PEG 10 kDa)RLENYCN
modifications: ends and bridges not checked
% activity in vitro [1]: 6.4% | % activity in vitro [2]: 2.1%
